According to paper PMC5467235, “Variation in auxin sensing guides AUX/IAA transcriptional repressor ubiquitylation and destruction” (Nature Communications, 2017):

B1: GST-IAA6 [Arabidopsis thaliana] / ASK1-TIR1 protein complex [Arabidopsis thaliana] (parent)
chain 1: MAKEGLALEITELRLGLPGDNYSEISVCGSSKKKKRVLSDMMTSSALDTENENSVVSSVEDESLPVVKSQAVGWPPVCSYRRKKNNEEASKAIGYVKVSMDGVPYMRKIDLGSSNSYINLVTVLENLFGCLGIGVAKEGKKCEYIIIYEDKDRDWMLVGDVPWQMFKESCKRLRIVKRSDATGFGLQQD
chain 2: MQKRIALSFPEEVLEHVFSFIQLDKDRNSVSLVCKSWYEIERWCRRKVFIGNCYAVSPATVIRRFPKVRSVELKGKPHFADFNLVPDGWGGYVYPWIEAMSSSYTWLEEIRLKRMVVTDDCLELIAKSFKNFKVLVLSSCEGFSTDGLAAIAATCRNLKELDLRESDVDDVSGHWLSHFPDTYTSLVSLNISCLASEVSFSALERLVTRCPNLKSLKLNRAVPLEKLATLLQRAPQLEELGTGGYTAEVRPDVYSGLSVALSGCKELRCLSGFWDAVPAYLPAVYSVCSRLTTLNLSYATVQSYDLVKLLCQCPKLQRLWVLDYIEDAGLEVLASTCKDLRELRVFPSEPFVMEPNVALTEQGLVSVSMGCPKLESVLYFCRQMTNAALITIARNRPNMTRFRLCIIEPKAPDYLTLEPLDIGFGAIVEHCKDLRRLSLSGLLTDKVFEYIGTYAKKMEMLSVAFAGDSDLGMHHVLSGCDSLRKLEIRDCPFGDKALLANASKLETMRSLWMSSCSVSFGACKLLGQKMPKLNVEVIDERGAPDSRPESCPVERVFIYRTVAGPRFDMPGFVWNMDQDSTMRFSRQIITTNGL
chain 3: MSAKKIVLKSSDGESFEVEEAVALESQTIAHMVEDDCVDNGVPLPNVTSKILAKVIEYCKRHVEAAASKAEAVEGAATSDDDLKAWDADFMKIDQATLFELILAANYLNIKNLLDLTCQTVADMIKGKTPEEIRTTFNIKNDFTPEEEEEVRRENQWAFE

Variants of: B1
Test: one-point saturation binding assay with [3H]IAA (radioligand binding)
Conditions: 200 nM [3H]IAA, read off a plot

response [c.p.m.] | Variant
3100 | chain 1 MAKEGLALEITELRLGLPGDNYSEISVCGSSKKKKRVLSDMMTSSALDTENENSVVSSVEDESLPVVKSQAVGWPPVRSYRRKKNNEEASKAIGYVKVSMDGVPYMRKIDLGSSNSYINLVTVLENLFGCLGIGVAKEGKKCEYIIIYEDKDRDWMLVGDVPWQMFKESCKRLRIVKRSDATGFGLQQD [chain 1 C78R]
